# Target: the molecule itself
# Test: cryo-EM structure; purified GlyR in asolectin nanodiscs (MSP1E3D1), buffer A (200 mM NaCl, 20 mM HEPES pH 8.0); with or without 32 μM THC and 0, 0.1 or 1 mM glycine; Titan Krios 300 keV, RELION; homopentamer
protein,measurement,value
"zebrafish glycine receptor alpha1 (GlyRα1), full-length, homopentamer in asolectin nanodiscs (receptor, UniProt O93430 25-444, looked up, N-glycans at Asn62, glycine receptor subunit alpha-1, zebrafish, codon-optimized full-length gene (NCBI NP_571477); residues of the models numbered as in UniProt O93430; Phe341-Lys394 (M3-M4 loop, ICD) not modelled in the structures; also called zebrafish homomeric GlyRα1; glycine α1 receptor) ARKAASPMPPSEFLDKLMGKVSGYDARIRPNFKGPPVNVTCNIFINSFGSIAETTMDYRVNIFLRQQWNDPRLAYSEYPDDSLDLDPSMLDSIWKPDLFFANEKGANFHEVTTDNKLLRISKNGNVLYSIRITLVLACPMDLKNFPMDVQTCIMQLESFGYTMNDLIFEWDEKGAVQVADGLTLPQFILKEEKDLRYCTKHYNTGKFTCIEARFHLERQMGYYLIQMYIPSLLIVILSWVSFWINMDAAPARVGLGITTVLTMTTQSSGSRASLPKVSYVKAIDIWMAVCLLFVFSALLEYAAVNFIARQHKELLRFQRRRRHLKEDEAGDGRFSFAAYGMGPACLQAKDGMAIKGNNNNAPTSTNPPEKTVEEMRKLFISRAKRIDTVSRVAFPLVFLIFNIFYWITYKIIRSEDIHKQ",stoichiometry N,5

# Source: PMC9388682, “Structural basis for cannabinoid-induced potentiation of alpha1-glycine receptors in lipid nanodiscs” (Nature Communications, 2022)
